Test results published in patent publication US20220227830A1, “QD DOSING OF GIP RECEPTOR AGONIST PEPTIDE COMPOUNDS AND USES THEREOF” (Takeda Pharmaceutical Company Limited, priority 2020, published 2022).
Starred links: 1 amine or outer side, 2 acyl side, 3 side chain; linkers in the order of their positions; H or OH if unused. Non-standard residues stand in square brackets, D forms with d. Groups on a side chain read outwards from the residue. No end group written: not given here. *: point of attachment. 2OEGgE = O=C(CC[C@H](N[*:1])C(=O)O)NCCOCCOCC(=O)NCCOCCOCC(=O)[*:2]; G2E3 = linker of 2 Gly and 3 Glu (read GGEEE); C16 diacid = O=C(O)CCCCCCCCCCCCCCC(=O)*; C15 diacid = O=C(O)CCCCCCCCCCCCCC(=O)*; γGlu = O=C(O)[C@H](CCC(=O)[*:2])N[*:1]; NMeY = CN[C@@H](Cc1ccc(O)cc1)C(=O)O; AEEA = NCCOCCOCC(=O)O; Aib = CC(C)(N)C(=O)O

T1: full-length human GIPR with an N-terminal FLAG tag (human, UniProt P48546 22-466)
T1 sequence (looked up): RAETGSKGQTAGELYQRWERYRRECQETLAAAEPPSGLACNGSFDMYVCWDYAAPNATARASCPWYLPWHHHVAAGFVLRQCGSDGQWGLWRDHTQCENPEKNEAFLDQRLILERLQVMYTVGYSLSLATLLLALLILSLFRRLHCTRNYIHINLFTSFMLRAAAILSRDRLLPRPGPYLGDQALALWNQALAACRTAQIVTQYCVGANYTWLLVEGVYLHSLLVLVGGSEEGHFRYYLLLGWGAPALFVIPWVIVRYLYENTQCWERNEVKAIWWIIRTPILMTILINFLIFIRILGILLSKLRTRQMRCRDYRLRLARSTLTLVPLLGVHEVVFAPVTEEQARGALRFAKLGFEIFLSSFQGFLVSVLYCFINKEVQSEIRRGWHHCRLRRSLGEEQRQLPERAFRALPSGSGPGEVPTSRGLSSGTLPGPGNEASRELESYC

B1: Compound 68 (peptide)
peptide: YXEGTFISDYSIALDRXHQXDFVNWLLAQSPSSGAPPPS
modifications: not fully specified; Me-Tyr1; Aib 2,20; Km17 = Lys(linker printed 'GS'-C15DA); C-term NH2
B2: Compound 51 (peptide)
peptide: Y[Aib]EGTFISDYSIAKDR[Aib]AQ[Aib]NFVNWLLAQSPSSGAPPPS-OH
modifications: not fully specified (residues 1, 14); also: Me-Tyr methyl position not given here
B3: Compound 75 (peptide)
peptide: [NMeY][Aib]EGTFISDYSIALDR[Aib]K([2OEGgE-C15 diacid])Q[Aib]DFVNWLLAQRPSSGAPPPS-NH2
modifications: N-terminus assumed
SMILES: CC[C@H](C)[C@H](NC(=O)[C@H](CO)NC(=O)[C@H](Cc1ccc(O)cc1)NC(=O)[C@H](CC(=O)O)NC(=O)[C@H](CO)NC(=O)[C@@H](NC(=O)[C@H](Cc1ccccc1)NC(=O)[C@@H](NC(=O)CNC(=O)[C@H](CCC(=O)O)NC(=O)C(C)(C)NC(=O)[C@H](Cc1ccc(O)cc1)NC)[C@@H](C)O)[C@@H](C)CC)C(=O)N[C@@H](C)C(=O)N[C@@H](CC(C)C)C(=O)N[C@@H](CC(=O)O)C(=O)N[C@@H](CCCNC(=N)N)C(=O)NC(C)(C)C(=O)N[C@@H](CCCCNC(=O)COCCOCCNC(=O)COCCOCCNC(=O)CC[C@H](NC(=O)CCCCCCCCCCCCCC(=O)O)C(=O)O)C(=O)N[C@@H](CCC(N)=O)C(=O)NC(C)(C)C(=O)N[C@@H](CC(=O)O)C(=O)N[C@@H](Cc1ccccc1)C(=O)N[C@H](C(=O)N[C@@H](CC(N)=O)C(=O)N[C@@H](Cc1c[nH]c2ccccc12)C(=O)N[C@@H](CC(C)C)C(=O)N[C@@H](CC(C)C)C(=O)N[C@@H](C)C(=O)N[C@@H](CCC(N)=O)C(=O)N[C@@H](CCCNC(=N)N)C(=O)N1CCC[C@H]1C(=O)N[C@@H](CO)C(=O)N[C@@H](CO)C(=O)NCC(=O)N[C@@H](C)C(=O)N1CCC[C@H]1C(=O)N1CCC[C@H]1C(=O)N1CCC[C@H]1C(=O)N[C@@H](CO)C(N)=O)C(C)C
B4: Compound 76 (peptide)
peptide: [NMeY][Aib]EGTFISDYSIALDR[Aib]K([AEEA-AEEA-γGlu-C15 diacid])Q[Aib]DFVNWLLAQSPSSGAPPPS-NH2
modifications: N-terminus assumed
SMILES: CC[C@H](C)[C@H](NC(=O)[C@H](CO)NC(=O)[C@H](Cc1ccc(O)cc1)NC(=O)[C@H](CC(=O)O)NC(=O)[C@H](CO)NC(=O)[C@@H](NC(=O)[C@H](Cc1ccccc1)NC(=O)[C@@H](NC(=O)CNC(=O)[C@H](CCC(=O)O)NC(=O)C(C)(C)NC(=O)[C@H](Cc1ccc(O)cc1)NC)[C@@H](C)O)[C@@H](C)CC)C(=O)N[C@@H](C)C(=O)N[C@@H](CC(C)C)C(=O)N[C@@H](CC(=O)O)C(=O)N[C@@H](CCCNC(=N)N)C(=O)NC(C)(C)C(=O)N[C@@H](CCCCNC(=O)COCCOCCNC(=O)COCCOCCNC(=O)CC[C@H](NC(=O)CCCCCCCCCCCCCC(=O)O)C(=O)O)C(=O)N[C@@H](CCC(N)=O)C(=O)NC(C)(C)C(=O)N[C@@H](CC(=O)O)C(=O)N[C@@H](Cc1ccccc1)C(=O)N[C@H](C(=O)N[C@@H](CC(N)=O)C(=O)N[C@@H](Cc1c[nH]c2ccccc12)C(=O)N[C@@H](CC(C)C)C(=O)N[C@@H](CC(C)C)C(=O)N[C@@H](C)C(=O)N[C@@H](CCC(N)=O)C(=O)N[C@@H](CO)C(=O)N1CCC[C@H]1C(=O)N[C@@H](CO)C(=O)N[C@@H](CO)C(=O)NCC(=O)N[C@@H](C)C(=O)N1CCC[C@H]1C(=O)N1CCC[C@H]1C(=O)N1CCC[C@H]1C(=O)N[C@@H](CO)C(N)=O)C(C)C

molecular target: full-length human GLP-1R with an N-terminal FLAG tag (human, UniProt P43220 24-463); assay: cell-based or functional assay

Binder	Human GLP1R cAMP HEK293T EC50
[NMeY][Aib]EGTFISDYSIALDRKHQ[Aib]NFVNWLLAQSPSSGAPPPS-NH2 (not fully specified (residue 17)) [Compound 65]	129 nM
[NMeY][Aib]EGTFISDYSIAK([G4-γGlu-C15 diacid])DR[Aib]AQ[Aib]NFVNWLLAQSPSSGAPPPS-NH2 [Compound 78]	112 nM
[NMeY][Aib]EGTFISDYSIALDR[Aib]K([G5gE-C15 diacid])Q[Aib]DFVNWLLAQSPSSGAPPPS-NH2 [Compound 74]	550 nM
[NMeY][Aib]EGTFISDYSIALDRIHQK([AEEA-AEEA-γGlu-C16 diacid])NFVNWLLAQK (not fully specified) [Compound 4]	692 nM
[NMeY][Aib]EGTFISDYSIALDRIHQK([AEEA-AEEA-γGlu-C15 diacid])NFVNWLLAQK (also: Me-Tyr methyl position not given here) [Compound 5]	955 nM
[NMeY][Aib]EGTFISDYSIALDR[Aib]AQ[Aib]NFVNWLLAQKPSSGAPPPS-OH (not fully specified (residue 30)) [Compound 52]	240 nM
[NMeY][Aib]EGTFISDYSIALDR[Aib]K([G5gE-C15 diacid])Q[Aib]DFVNWLLAQRPSSGAPPPS-NH2 [Compound 73]	1000 nM
[NMeY][Aib]EGTFISDYSIALDRKHQ[Aib]NFVNWLLAQRPSSGAPPPS-NH2 (not fully specified (residue 17)) [Compound 63]	141 nM
[NMeY][Aib]EGTFISDYSIAKDR[Aib]AQ[Aib]NFVNWLLAQRPSSGAPPPS-NH2 (not fully specified (residue 14)) [Compound 77]	331 nM
[NMeY][Aib]EGTFISDYSIALDRK([G2E3-C15 diacid])AQ[Aib]NFVNWLLAQSPSSGAPPPS-OH (also: Me-Tyr methyl position not given here) [Compound 53]	617 nM
[NMeY][Aib]EGTFISDYSIALDR[Aib]K([G5gE-C15 diacid])Q[Aib]NFVNWLLAQSPSSGAPPPS-NH2 [Compound 71]	955 nM
[NMeY][Aib]EGTFISDYSIALDR[Aib]K([G2E3-C15 diacid])Q[Aib]NFVNWLLAQSPSSGAPPPS-OH (not fully specified) [Compound 55]	240 nM
Y[Aib]EGTFISDYSI[Aib]KDR[Aib]AQ[Aib]NFVNWLLAQRPSSGAPPPS-OH (not fully specified (residues 1, 14)) [Compound 56]	263 nM
[NMeY][Aib]EGTFISDYSIALDRKHQ[Aib]NFVNWLLAQSPSSGAPPPS-NH2 (not fully specified (residue 17)) [Compound 64]	1000 nM
[NMeY]GEGTFISDYSIAK([2OEGgE-C16 diacid])DRIHQ[Aib]NFVNWLLAQK (not fully specified) [Compound 6]	692 nM
YXEGTFISDYSIALDRXHQXDFVNWLLAQRPSSGAPPPS (not fully specified; Me-Tyr1; Aib 2,20; Km17 = Lys(gEgE-C15DA); C-term NH2) [Compound 66]	1000 nM
B1	200 nM
YXEGTFISDYSIALDRXHQXDFVNWLLAQSPSSGAPPPS (not fully specified; Me-Tyr1; Aib 2,20; Km17 = Lys(gE-C15DA); C-term NH2) [Compound 69]	1000 nM
YXEGTFISDYSIALDRXHQXDFVNWLLAQRPSSGAPPPS (not fully specified; Me-Tyr1; Aib 2,20; Km17 = Lys(gE-C15DA); C-term NH2) [Compound 67]	525 nM
B2	1000 nM
[NMeY][Aib]EGTFISDYSIALDR[Aib]AQ[Aib]NFVNWLLAQK([OEGgEgE-C15 diacid])PSSGAPPPS-NH2 [Compound 70]	91.2 nM
[NMeY]SEGTFISDYSIAK([2OEG-γGlu-C16 diacid])DRIHQ[Aib]NFVNWLLAQK (not fully specified (N-terminus)) [Compound 7]	257 nM
B3	1000 nM
B4	295 nM

molecular target: T1, full-length human GIPR with an …; assay: cell-based or functional assay

Binder	Human GIPR cAMP, HEK293T EC50
[NMeY][Aib]EGTFISDYSIALDRKHQ[Aib]NFVNWLLAQSPSSGAPPPS-NH2 (not fully specified (residue 17)) [Compound 65]	0.0003 nM
[NMeY][Aib]EGTFISDYSIAK([G4-γGlu-C15 diacid])DR[Aib]AQ[Aib]NFVNWLLAQSPSSGAPPPS-NH2 [Compound 78]	0.0003 nM
[NMeY][Aib]EGTFISDYSIALDR[Aib]K([G5gE-C15 diacid])Q[Aib]DFVNWLLAQSPSSGAPPPS-NH2 [Compound 74]	0.0004 nM
[NMeY][Aib]EGTFISDYSIALDRIHQK([AEEA-AEEA-γGlu-C16 diacid])NFVNWLLAQK (not fully specified) [Compound 4]	0.0005 nM
[NMeY][Aib]EGTFISDYSIALDRIHQK([AEEA-AEEA-γGlu-C15 diacid])NFVNWLLAQK (also: Me-Tyr methyl position not given here) [Compound 5]	0.0008 nM
[NMeY][Aib]EGTFISDYSIALDR[Aib]AQ[Aib]NFVNWLLAQKPSSGAPPPS-OH (not fully specified (residue 30)) [Compound 52]	0.0003 nM
[NMeY][Aib]EGTFISDYSIALDR[Aib]K([G5gE-C15 diacid])Q[Aib]DFVNWLLAQRPSSGAPPPS-NH2 [Compound 73]	0.0005 nM
[NMeY][Aib]EGTFISDYSIALDRKHQ[Aib]NFVNWLLAQRPSSGAPPPS-NH2 (not fully specified (residue 17)) [Compound 63]	0.0002 nM
[NMeY][Aib]EGTFISDYSIAKDR[Aib]AQ[Aib]NFVNWLLAQRPSSGAPPPS-NH2 (not fully specified (residue 14)) [Compound 77]	0.0002 nM
[NMeY][Aib]EGTFISDYSIALDRK([G2E3-C15 diacid])AQ[Aib]NFVNWLLAQSPSSGAPPPS-OH (also: Me-Tyr methyl position not given here) [Compound 53]	0.0001 nM
[NMeY][Aib]EGTFISDYSIALDR[Aib]K([G5gE-C15 diacid])Q[Aib]NFVNWLLAQSPSSGAPPPS-NH2 [Compound 71]	0.0006 nM
[NMeY][Aib]EGTFISDYSIALDR[Aib]K([G2E3-C15 diacid])Q[Aib]NFVNWLLAQSPSSGAPPPS-OH (not fully specified) [Compound 55]	0.0002 nM
Y[Aib]EGTFISDYSI[Aib]KDR[Aib]AQ[Aib]NFVNWLLAQRPSSGAPPPS-OH (not fully specified (residues 1, 14)) [Compound 56]	0.0003 nM
[NMeY][Aib]EGTFISDYSIALDRKHQ[Aib]NFVNWLLAQSPSSGAPPPS-NH2 (not fully specified (residue 17)) [Compound 64]	0.0005 nM
[NMeY]GEGTFISDYSIAK([2OEGgE-C16 diacid])DRIHQ[Aib]NFVNWLLAQK (not fully specified) [Compound 6]	0.0537 nM
YXEGTFISDYSIALDRXHQXDFVNWLLAQRPSSGAPPPS (not fully specified; Me-Tyr1; Aib 2,20; Km17 = Lys(gEgE-C15DA); C-term NH2) [Compound 66]	0.0004 nM
B1	0.0007 nM
YXEGTFISDYSIALDRXHQXDFVNWLLAQSPSSGAPPPS (not fully specified; Me-Tyr1; Aib 2,20; Km17 = Lys(gE-C15DA); C-term NH2) [Compound 69]	0.0004 nM
YXEGTFISDYSIALDRXHQXDFVNWLLAQRPSSGAPPPS (not fully specified; Me-Tyr1; Aib 2,20; Km17 = Lys(gE-C15DA); C-term NH2) [Compound 67]	0.0006 nM
B2	0.0003 nM
[NMeY][Aib]EGTFISDYSIALDR[Aib]AQ[Aib]NFVNWLLAQK([OEGgEgE-C15 diacid])PSSGAPPPS-NH2 [Compound 70]	0.0009 nM
[NMeY]SEGTFISDYSIAK([2OEG-γGlu-C16 diacid])DRIHQ[Aib]NFVNWLLAQK (not fully specified (N-terminus)) [Compound 7]	0.0016 nM
B3	0.0011 nM
B4	0.0005 nM
